According to patent publication US20050144671A1 (ARIZONA BD OF REGENTS BEHALF OF UNIV OF ARIZONA, published 2005):

Molecular target: T1, S-tag-ABI2 (full-length ABI2 cloned in pCITE4a, in vitro translated) (UniProt O04719 1-423)
T1 construct: also called S-tagged ABI2; not shown: S-tag encoded by pCITE4a
T1 sequence (looked up): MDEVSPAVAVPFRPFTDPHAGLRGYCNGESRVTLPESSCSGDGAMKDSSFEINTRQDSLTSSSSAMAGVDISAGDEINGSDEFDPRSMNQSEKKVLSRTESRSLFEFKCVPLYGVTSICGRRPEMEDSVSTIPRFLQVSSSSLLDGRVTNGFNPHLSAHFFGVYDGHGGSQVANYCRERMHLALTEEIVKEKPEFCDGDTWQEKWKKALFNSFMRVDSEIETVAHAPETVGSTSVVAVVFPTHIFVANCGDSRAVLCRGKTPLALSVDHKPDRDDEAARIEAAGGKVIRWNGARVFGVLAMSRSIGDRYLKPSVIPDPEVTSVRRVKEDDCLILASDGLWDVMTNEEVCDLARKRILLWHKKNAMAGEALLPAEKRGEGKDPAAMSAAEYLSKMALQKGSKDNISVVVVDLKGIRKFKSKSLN
Experiment: in vitro S-tag pull-down of 35S-labeled Snow1
Experimental: In-vitro pull down assay: In-vitro pull-down assays were conducted to confirm the physical interaction of Snow1 and Ice1. Full-length snow1 cloned in pGEM-T easy and AtMyb79 (cloned in EcoR I and Xho I sites of pBCSK Stratagene) were used. Full-length Ice1 and ABI2 were cloned in EcoRI/SalI and NcoI/EcoRI sites of pCITE4a. 2 μg each of the linearized plasmid were in vitro transcribed using Megascript T7 RNA polymerase kit (Ambion). 10 μg of the purified transcript of snow1 and AtMyb79 were in vitro translated using Flexi Rabbit Reticulocyte system (Promega) in presence of ³⁵S-methionine. S-tag-Ice1 and S-tag-ABI2 transcripts were translated in absence of ³⁵S-methionine and their proteins were purified using S-tag purification kit (Novagen) as per the manufacturer's instructions. S-Tag Ice1 and S-tag ABI2 bound on the S-Tag slurry were used to pull down ³⁵S-labeled proteins. In another experiment ³⁵S-labeled S-tag Ice was produced and was used for pull-down using either GST-Snow1 or GST-Myb79 proteins. Pull-down assays were conducted as described (Haftler et al 2000).

binding result: no binding
B1: 35S-labeled Snow1 (full-length snow1 in pGEM-T easy, in vitro transcribed and translated) (other)
chain: MGRAPCCEKMGLKRGPWTPEEDQILVSFILNHGHSNWRALPKQAGLLRCGKSCRLRWMNYLKPDIKRGNFTKEEEDAIISLHQILGNRWSAIAAKLPGRTDNEIKNVWHTHLKKRLEDYQPAKPKTSNKKKGTKPKSESVITSSNSTRSESELADSSNPSGESLFSTSPSTSEVSSMTLISHDGYSNEINMDNKPGDISTIDQECVSFETFGADIDESFWKETLYSQDEHNYVSNDLEVAGLVEIQQEFQNLGSANNEMIFDSEMELLVRCIGICE
modifications: 35S-methionine label
